Article PMC5994690, “Virulence Associated Gene 8 of Bordetella pertussis Enhances Contact System Activity by Inhibiting the Regulatory Function of Complement Regulator C1 Inhibitor” (Frontiers in Immunology, 2018)

B1: Recombinant his-tag passenger domain of virulence associated gene 8 (Vag8) of Bordetella pertussis (domain or fragment)
chain: VTAAQRIDGGAAFLGDVAIATTKASEHGINVTGRTAEVRVTGGTIRTSGNQAQGLRVGTENAPDNTALGASVFLQNLIIETSGTGALGVSVHEPQGGGGTRLSMSGTTVRTRGDDSFALQLSGPASATLNDVALETAGQQAPAVVLWQGAQLNAQGLVVQVNGAGVSAIHAQDAGSFTLSGSDITARGLEVAGIYVQEGMQGTLTGTRVTTQGDTAPALQVEDAGTHVSMNGGALSTSGANSPAAWLLAGGSAQFRDTVLRTVGEASHGVDVAAHSEVELAHAQVRADGQGAHGLVVTRSSAMVRAGSLVESTGDGAAALLESGHLTVDGSVVHGHGAAGLEVDGESNVSLLNGARLSSDQPTAIRLIDPRSVLNLDIKDRAQLLGDIAPEAQQPDGSPEQARVRVALADGGTWAGRTDGAVHTVRLLDRGVWTVTGDSRVAEVKLEGGTLAFAPPAQPKGAFKTLVATQGISGTGTIVMNAHLPSGTADVLVAPQGFGDRQVLVVNNTDDGTESGATKVPLIEDEQGHTAFTLGNMGGRVDAGARQYELTASEAQADKARTWQLTPTNEL
B2: Full length complement regulator C1 inhibitor (C1-INHFL), serum-derived (natural protein, UniProt P05155 23-500, looked up)
chain: NPNATSSSSQDPESLQDRGEGKVATTVISKMLFVEPILEVSSLPTTNSTTNSATKITANTTDEPTTQPTTEPTTQPTIQPTQPTTQLPTDSPTQPTTGSFCPGPVTLCSDLESHSTEAVLGDALVDFSLKLYHAFSAMKKVETNMAFSPFSIASLLTQVLLGAGENTKTNLESILSYPKDFTCVHQALKGFTTKGVTSVSQIFHSPDLAIRDTFVNASRTLYSSSPRVLSNNSDANLELINTWVAKNTNNKISRLLDSLPSDTRLVLLNAIYLSAKWKTTFDPKKTRMEPFHFKNSVIKVPMMNSKKYPVAHFIDQTLKAKVGQLQLSHNLSLVILVPQNLKHRLEDMEQALSPSVFKAIMEKLEMSKFQPTLLTLPRIKVTTSQDMLSIMEKLEFFDFSYDLNLCGLTEDPDLQVSAMQHQTVLELTETGVEAAAASAISVARTLLVFEVQQPFLFVLWDQQHKFPVFMGRVYDPRA
modifications: glycosylated (58 kDa protein/28 kDa sugar by SEC-MALS)
notes: Purified from serum (Complement Technology/Complement Technologies, Tyler, TX); source: bought: Complement Technology (serum-derived)

What was measured:
[1] = target: B2; test: SPR; Biacore T200; Vag8 passenger domain immobilised by amine coupling on a CM5 chip; C1-INH 2.5-160 nM injected at 30 µL/min; 25°C, 10 mM HEPES pH 7.4, 150 mM NaCl, 3 mM EDTA, 0.005% P20; dissociation 300 s; settings: both partners purified
[2] = target: B1; test: SEC-MALS; S200 increase 10/300 column, 50 mM Tris pH 7.5, 150 mM NaCl, 0.4 mL/min; individual proteins and the complex; settings: both partners purified

Row | Binder | Kd [1] | stoichiometry N [2]
1 | B1 | ≤ 1 nM | –
2 | B2 | – | 1
